Measured values: the supplement of paper PMC7125110
± gives the standard error. This sample holds only a part of the variants without activity.

B1: glmS ribozyme (parent)
chain: AUAAAAGCGCCAGAACUACAGAAAUGUAGUUGACGAGGAGGAGGUUUAUCGAAUUUUCGGCGGAUGCCUCCAAA

Assays:
Conditions in all cases: with glucosamine-6-phosphate
[1] = variants of: B1; assay: self-cleavage kobs at 40 uM GlcN6P; higher = faster cleavage; RNA array
In short: (§1)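 Barcoded ribozyme variants, transcribed in situ by E. coli RNA polymerase on sequenced MiSeq chips, were followed via a hybridised Cy3 probe at 37 °C. Glucosamine-6-phosphate ranged from 40 μM to 10 mM in HEPES/KCl/Mg(OAc)2 buffer. kobs came from decay fits to per-tile medians, and kcat and KM from weighted Michaelis–Menten fits.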

[2] = variants of: B1; assay: self-cleavage kobs at 640 uM GlcN6P; higher = faster cleavage; RNA array
In short: as §1

[3] = variants of: B1; assay: self-cleavage kobs at 2500 uM GlcN6P; higher = faster cleavage; RNA array
In short: as §1

[4] = variants of: B1; assay: self-cleavage kobs at 10000 uM GlcN6P; higher = faster cleavage; RNA array
In short: as §1

[5] = variants of: B1; assay: self-cleavage kobs at 160 uM GlcN6P; higher = faster cleavage; RNA array
In short: as §1

| Variant | self-cleavage kobs at 40 uM GlcN6P [1] [s⁻¹] | self-cleavage kobs at 640 uM GlcN6P [2] [s⁻¹] | self-cleavage kobs at 2500 uM GlcN6P [3] [s⁻¹] | self-cleavage kobs at 10000 uM GlcN6P [4] [s⁻¹] | self-cleavage kobs at 160 uM GlcN6P [5] [s⁻¹] |
| --- | --- | --- | --- | --- | --- |
| C8U U55C | < 1e-05 | < 1e-05 | < 1e-05 | < 1e-05 | – |
| C8U G41A G59C | < 1e-05 | – | – | < 1e-05 | – |
| C8G G29A | < 1e-05 | < 1e-05 | < 1e-05 | < 1e-05 | < 1e-05 |
| C10A G38A A53U C68A | < 1e-05 | – | – | – | – |
| G9U U31G | < 1e-05 | < 1e-05 | < 1e-05 | < 1e-05 | < 1e-05 |
| G9A C11G A53G | < 1e-05 | – | – | – | – |
| G9A G13A C34G U49C C68U | < 1e-05 | – | – | – | – |
| C8U G51C | < 1e-05 | – | < 1e-05 | < 1e-05 | < 1e-05 |
| G9U C50U C70U | < 1e-05 | – | – | – | – |
| G9U A48G | < 1e-05 | < 1e-05 | – | < 1e-05 | < 1e-05 |
| G9A G35A | < 1e-05 | < 1e-05 | – | – | < 1e-05 |
| G9U C16G C71U | < 1e-05 | – | < 1e-05 | – | – |
| C8G C61G | < 1e-05 | < 1e-05 | < 1e-05 | < 1e-05 | < 1e-05 |
| G9C C71G | < 1e-05 | < 1e-05 | < 1e-05 | < 1e-05 | < 1e-05 |
| G9U G29C U30C | < 1e-05 | < 1e-05 | < 1e-05 | < 1e-05 | < 1e-05 |
| C10A A14U C70A | 5.36e-05 ± 2.5e-05 | – | – | 3.49e-05 ± 1.4e-05 | – |
| C8U C50G C58G C71U | 0.000808 ± 0.00019 | – | – | 0.000113 ± 2.1e-05 | – |
| G9U G29U A42G U65G | < 1e-05 | – | – | < 1e-05 | – |
| G9A C70A | < 1e-05 | < 1e-05 | < 1e-05 | < 1e-05 | < 1e-05 |
| G9C A42G | < 1e-05 | – | < 1e-05 | < 1e-05 | < 1e-05 |
| G9U A33U A53U C61G | < 1e-05 | – | – | – | – |
| C8G C67U | < 1e-05 | < 1e-05 | < 1e-05 | – | < 1e-05 |
| C10A G40U U54C | < 1e-05 | – | – | < 1e-05 | – |
| G9U G41U A42G A64U C71U | < 1e-05 | – | – | < 1e-05 | – |

| Variant | self-cleavage kobs at 40 uM GlcN6P [1] [s⁻¹] | self-cleavage kobs at 640 uM GlcN6P [2] [s⁻¹] | self-cleavage kobs at 2500 uM GlcN6P [3] [s⁻¹] | self-cleavage kobs at 10000 uM GlcN6P [4] [s⁻¹] | self-cleavage kobs at 160 uM GlcN6P [5] [s⁻¹] |
| --- | --- | --- | --- | --- | --- |
| C8U A15G G38U C61G C68G | 0.00048 ± 0.00015 | – | – | 0.000181 ± 4.8e-05 | – |
| G9A A14G G32U U65A | < 1e-05 | – | < 1e-05 | < 1e-05 | – |
| C8U C10A C50G | 9.57e-05 ± 2e-05 | – | 8.56e-05 ± 2.1e-05 | 9.18e-05 ± 1.7e-05 | 0.000179 ± 2.8e-05 |
| C8U C10A C50A | < 1e-05 | – | – | – | – |
| C8G C11G | < 1e-05 | – | – | < 1e-05 | < 1e-05 |
| G9C C11A | < 1e-05 | – | – | – | < 1e-05 |
| C10A C70G | 2.53e-05 ± 1e-05 | 0.000116 ± 1.8e-05 | – | – | – |
| G9A C58U C61G | < 1e-05 | – | – | < 1e-05 | – |
| G9C G63C | < 1e-05 | < 1e-05 | < 1e-05 | – | < 1e-05 |
| C8G G13A G37U G44C A53U G63U | < 1e-05 | – | – | – | – |
| G9A C10A C11U U56G C71U | < 1e-05 | – | < 1e-05 | < 1e-05 | – |
| C10A A33C A64C | < 1e-05 | – | < 1e-05 | < 1e-05 | – |
| C8U C10U C50A C67G | 6.47e-05 ± 2.3e-05 | – | – | 0.000228 ± 4.1e-05 | – |
| C8G C11A C50G | 0.000193 ± 4.9e-05 | – | – | – | – |
| C8U A12C C61G | < 1e-05 | – | < 1e-05 | < 1e-05 | – |
| C8U U45G | < 1e-05 | < 1e-05 | < 1e-05 | – | < 1e-05 |
| G9A A15G U30C | < 1e-05 | – | – | – | – |
| G9A A36C U49C | < 1e-05 | – | < 1e-05 | < 1e-05 | – |
| G9U G41C | < 1e-05 | – | < 1e-05 | – | < 1e-05 |
| G9C C11U U31C A36G G38A C50G U69G C70G | 0.00075 ± 0.00022 | – | – | 0.000818 ± 0.00021 | – |
| C8U A39U U45G C70G | < 1e-05 | – | – | < 1e-05 | – |
| C8G G9A G29U U56A A64G C70A | < 1e-05 | – | – | – | – |
| C8G U55C C61U | < 1e-05 | < 1e-05 | < 1e-05 | – | – |
| C8G G38U G60U | < 1e-05 | – | – | – | – |

| Variant | self-cleavage kobs at 40 uM GlcN6P [1] [s⁻¹] | self-cleavage kobs at 640 uM GlcN6P [2] [s⁻¹] | self-cleavage kobs at 2500 uM GlcN6P [3] [s⁻¹] | self-cleavage kobs at 10000 uM GlcN6P [4] [s⁻¹] | self-cleavage kobs at 160 uM GlcN6P [5] [s⁻¹] |
| --- | --- | --- | --- | --- | --- |
| G9C G43A G44U C70G | < 1e-05 | – | – | < 1e-05 | – |
| C8U C10U C70G | 5.14e-05 ± 2.4e-05 | 0.000103 ± 2.5e-05 | 0.000587 ± 0.00021 | 5.37e-05 ± 1.7e-05 | 8.73e-05 ± 2.6e-05 |
| G9U G35A | < 1e-05 | < 1e-05 | < 1e-05 | < 1e-05 | < 1e-05 |
| G9C G29C C67U | < 1e-05 | < 1e-05 | – | < 1e-05 | – |
| G9A A14C G44U U47C | < 1e-05 | – | – | – | – |
| C8U A64G C68U | < 1e-05 | – | – | < 1e-05 | – |
| G9U A33C A36C U46C C68G | < 1e-05 | – | – | < 1e-05 | – |
| C10A G40C | < 1e-05 | < 1e-05 | – | < 1e-05 | < 1e-05 |
| C10A G40A | < 1e-05 | < 1e-05 | < 1e-05 | < 1e-05 | < 1e-05 |
| G9U G38A U56C G63U | < 1e-05 | – | – | < 1e-05 | – |
| G9U A36G A42U G44U | < 1e-05 | < 1e-05 | < 1e-05 | – | – |
| C8U C10A | < 1e-05 | < 1e-05 | < 1e-05 | < 1e-05 | < 1e-05 |
| G9A G13A A14C C61A | < 1e-05 | – | – | < 1e-05 | – |
| G9A C34A G44U U54A C68A | < 1e-05 | – | – | – | – |
| C10A G40U G41A C70A | < 1e-05 | – | – | < 1e-05 | – |
| C8G U31A U56A C70A | < 1e-05 | – | – | < 1e-05 | – |
| G9C U47C A53G G62A C68G | < 1e-05 | – | – | < 1e-05 | – |
| C8G U54G | < 1e-05 | – | – | – | – |
| C8U A14G A42C | < 1e-05 | – | < 1e-05 | – | < 1e-05 |
| C8U A15G C34U G35U A36U C68A | < 1e-05 | < 1e-05 | – | – | < 1e-05 |
| C8G C34U U55G | < 1e-05 | – | – | < 1e-05 | – |
| C8G C50G A53G A64G | 0.000149 ± 6.6e-05 | – | – | – | – |
| C8G C16U | < 1e-05 | < 1e-05 | < 1e-05 | < 1e-05 | < 1e-05 |
| G9U A15C G44C U47C | < 1e-05 | – | < 1e-05 | < 1e-05 | – |

| Variant | self-cleavage kobs at 40 uM GlcN6P [1] [s⁻¹] | self-cleavage kobs at 640 uM GlcN6P [2] [s⁻¹] | self-cleavage kobs at 2500 uM GlcN6P [3] [s⁻¹] | self-cleavage kobs at 10000 uM GlcN6P [4] [s⁻¹] | self-cleavage kobs at 160 uM GlcN6P [5] [s⁻¹] |
| --- | --- | --- | --- | --- | --- |
| G9C U31G U54C | < 1e-05 | – | – | – | – |
| C8G C50G | 0.000322 ± 0.00014 | 0.00014 ± 3.4e-05 | 0.000123 ± 2.4e-05 | 0.000242 ± 7.8e-05 | 0.000106 ± 2.1e-05 |
| C8G C50U | < 1e-05 | < 1e-05 | < 1e-05 | < 1e-05 | < 1e-05 |
| G9U G37A | < 1e-05 | – | < 1e-05 | – | < 1e-05 |
| C8U A12C A15G C67U | < 1e-05 | – | – | < 1e-05 | – |
| C8G G13U G51C A64G | < 1e-05 | – | – | – | – |
| C8G U45G U47G C58U G66U C71U | < 1e-05 | – | – | – | – |
| C8U C16A | < 1e-05 | < 1e-05 | < 1e-05 | < 1e-05 | – |
| C8G G9U | < 1e-05 | < 1e-05 | < 1e-05 | – | – |
| G9U C11U C68U | < 1e-05 | – | – | – | – |
| G9C A15G C50G G59C C70G | 0.00011 ± 3.6e-05 | – | – | 0.000264 ± 5.3e-05 | – |
| G9C G13C G35C | < 1e-05 | < 1e-05 | – | – | – |
| G9A U30C U31C C50A | < 1e-05 | < 1e-05 | – | < 1e-05 | < 1e-05 |
| G9A C61A | < 1e-05 | < 1e-05 | < 1e-05 | < 1e-05 | < 1e-05 |
| G9A A42G G43U C61A | < 1e-05 | < 1e-05 | – | – | – |
| G9U C34A G35C G43U | < 1e-05 | – | < 1e-05 | – | – |
| G9U A64C | < 1e-05 | < 1e-05 | – | < 1e-05 | < 1e-05 |
| G9A G41U | < 1e-05 | < 1e-05 | < 1e-05 | – | < 1e-05 |
| C8U G37C A42U U55C | < 1e-05 | – | – | – | – |
| G9U A12G G32U G43U U45A | < 1e-05 | – | – | – | – |
| C8G G43C | < 1e-05 | < 1e-05 | < 1e-05 | < 1e-05 | < 1e-05 |
| G9U C67G | < 1e-05 | – | < 1e-05 | – | < 1e-05 |
| C8U A53U | < 1e-05 | < 1e-05 | – | < 1e-05 | – |
